From PMC4475061 (2015)

How the values were obtained:
[1] = target: IST1 MIMs peptide (residues 316–366), fluorescently labeled (human, Oregon Green 488 maleimide on the non-native N-terminal cysteine); test: FP
[2] = target: IST1 MIM2 peptide (residues 316–343); test: FP

Kd [1] [µM]	Kd [2] [µM]	Binder
0.32		ULK3(MIT)2 V338D (domain or fragment) GPHMSGESLGRATALVVQAVKKDQEGDSAAALSLYCKALDFFVPALHYEVDAQRKEAIKAKVGQYDSRAEELKAIVSSSNQALLRQGTSARDLLREMARDKPRLLAALEVASAAMAKEEAAGGEQDALDLYQHSLGELLLLLAAEPPGRRRELLHTEVQNLMARAEYLKEQVKMRES
	> 300	ULK3(MIT)2 (residues 277–449) (domain or fragment) GPHMSGESLGRATALVVQAVKKDQEGDSAAALSLYCKALDFFVPALHYEVDAQRKEAIKAKVGQYVSRAEELKAIVSSSNQALLRQGTSARDLLREMARDKPRLLAALEVASAAMAKEEAAGGEQDALDLYQHSLGELLLLLAAEPPGRRRELLHTEVQNLMARAEYLKEQVKMRES
24.3		ULK3(MIT)2 M434D (domain or fragment) GPHMSGESLGRATALVVQAVKKDQEGDSAAALSLYCKALDFFVPALHYEVDAQRKEAIKAKVGQYVSRAEELKAIVSSSNQALLRQGTSARDLLREMARDKPRLLAALEVASAAMAKEEAAGGEQDALDLYQHSLGELLLLLAAEPPGRRRELLHTEVQNLDARAEYLKEQVKMRES
